Patent US20120301899A1 (AGENCY FOR SCIENCE TECHNOLOGY AND RESEARCH, published 2012)

Biological target: T1, podocalyxin-like protein-1 (PODXL) (human, UniProt O00592 23-558)
T1 construct: whole, on cells; In the flow cytometry experiments the target is undifferentiated hESC; also called PCLPI; Podocalyxin-like protein 1 precursor
T1 sequence (looked up): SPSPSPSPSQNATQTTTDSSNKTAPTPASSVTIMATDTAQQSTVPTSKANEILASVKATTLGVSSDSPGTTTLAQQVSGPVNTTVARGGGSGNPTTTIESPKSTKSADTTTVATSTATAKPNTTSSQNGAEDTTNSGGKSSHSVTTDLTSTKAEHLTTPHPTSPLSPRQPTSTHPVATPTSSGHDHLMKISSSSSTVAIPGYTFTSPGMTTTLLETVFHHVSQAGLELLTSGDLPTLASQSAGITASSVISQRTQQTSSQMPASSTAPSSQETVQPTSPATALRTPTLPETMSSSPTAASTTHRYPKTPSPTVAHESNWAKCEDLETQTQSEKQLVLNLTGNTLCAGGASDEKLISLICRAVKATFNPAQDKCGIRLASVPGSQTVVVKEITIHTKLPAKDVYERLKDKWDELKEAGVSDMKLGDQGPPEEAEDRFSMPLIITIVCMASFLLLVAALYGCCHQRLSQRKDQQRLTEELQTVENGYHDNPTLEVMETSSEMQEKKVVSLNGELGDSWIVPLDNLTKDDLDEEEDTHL
Assay: kinetics of binding to PODXL on the surface of hESCs; method not stated

B1: monoclonal antibody mAb 84 (antibody, V domains shown)
VH: QVQLQQSGGGLVQPGGSMKLSCVASGFTFSNYWMNWVRQSPEKGLEWVAEIRLKSNNYATHYAESVKGRFTISRDDSKSSVYLQMNNLRAEDTGIYYCTGERAWGQGTTVTVSS
VL: DIELTQSPAIMSASPGEKVTMTCSASSSVNYMYWYQQKPGSSPRLLIYDTSNLASGVPVRFSGSGSGTSYSLTISRMEAEDAATYYCQQWSSYPYTFGGGTKLEIKR
  Kd: 40 nM
  koff: 0.0029 s⁻¹
  kon: 71000 M⁻¹ s⁻¹
